Measurements: paper PMC10031235 (Protein Science : A Publication of the Protein Society, 2023)

Target: the molecule itself
Assay: SEC; size-exclusion chromatography of purified PSAT in solution (Figure S7); conditions not shown

B1: human phosphoserine aminotransferase (PSAT-β) (enzyme)
chain: MDAPRQVVNFGPGPAKLPHSVLLEIQKELLDYKGVGISVLEMSHRSSDFAKIINNTENLVRELLAVPDNYKVIFLQGGGCGQFSAVPLNLIGLKAGRCADYVVTGAWSAKAAEEAKKFGTINIVHPKLGSYTKIPDPSTWNLNPDASYVYYCANETVHGVEFDFIPDVKGAVLVCDMSSNFLSKPVDVSKFGVIFAGAQKNVGSAGVTVVIVRDDLLGFALRECPSVLEYKVQAGNSSLYNTPPCFSIYVMGLVLEWIKNNGGAAAMEKLSSIKSQTIYEIIDNSQGFYVCPVEPQNRSKMNIPFRIGNAKGDDALEKRFLDKALELNMLSLKGHRSVGGIRASLYNAVTIEDVQKLAAFMKKFLEMHQL
modifications: pyridoxal 5'-phosphate covalently bound to Lys200 (internal aldimine); pyridoxamine phosphate in place of PLP in some chains
notes: human phosphoserine aminotransferase, PSAT1 (PSAT-β), wild type, EC 2.6.1.52; gene coding for human PSAT-β cloned in a modified pET28b; electron density continuous from residue 6 to 370; also called PSAT1; human PSAT; source: E. coli BL21(DE3) tuner, purified (IMAC Talon; Superdex 75 before crystallization)
stoichiometry N: 2
